Results from patent publication US20060134122A1, “Peptides of syndecan-1 for inhibition of cancer” (priority 2004, published 2006).

Tests used:
[1] = test system: MDA-MB-231 human mammary carcinoma cells; assay: Cell spreading assay (rhodamine-phalloidin), MDA-MB-231; type: cell-based; settings: 2 h, LM609 30 μg/mL, GST-mS1ED or GST-mS4ED 20 μM; for cell spreading on FN: wells coated with 10 μg/mL FN, mAb 13 25 μg/mL; for cell spreading on VN: wells coated with 10 μg/mL VN, absence of serum
Method: FIG. 1 —MDA-MB-231 human mammary carcinoma cell spreading on VN, but not FN, is disrupted by soluble, recombinant Sdc-1ED. Cells were plated on wells coated with 10 μg/mL of VN or FN in plating medium alone or medium containing either 30 μg/mL mAb LM609, 25 μg/mL mAb 13, 20 μM GST-mS1ED or -mS4ED. Cells were incubated at 37° C. for 2 h, fixed and stained with rhodamine-conjugated phalloidin. Bar, 50 μm.
FIGS. 6A-B—Deletion of a region of the Sdc-1ED blocks αvβ3-mediated cell spreading. (FIG. 6A) Graphic representation of S1 expression constructs transfected into MDA-MB-231 cells and their relative expression levels as detected by FACS (mean fluorescent intensity). Note the locations of the mAb 281.2 and B-B4 binding sites; asterisks indicate the HS attachment sites. (FIG. 6B) Cells transfected with empty vector (NEO) or S1 constructs were seeded in plating medium on wells coated with either anti-hS1 mAb B-B4 (NEO+inset, hS1 and insets of mS1) or anti-mS1 mAb 281.2 (all others). Where noted, cells were pretreated in suspension with 1 μg/mL mAb P5D2 for 15 min prior to plating. Cells were incubated at 37° C. for 2 h, fixed and stained with rhodamine-conjugated phalloidin. Bar, 50 μm.
FIGS. 8A-H—Downregulation of Sdc-1 expression by siRNA disrupts cell spreading and migration on VN. (FIG. 8A) SiRNA targeting of hS1 mRNA. FACS analysis for (FIGS. 8B-C) hS1 (mAb B-B4), (FIG. 8D) hS4 (mAb F94-8G3) and (FIG. 8E) mS1 (mAb 281.2) expression against IgG controls (black filled histograms) in NEO and GPI-mS1ED expressing MDA-MB-231 cells 72 h after transfection with either lipid-vehicle alone (Vehicle or (V)) or 200 nM siRNA (RNAi or (R)). (FIG. 8F) NEO^MDA-MB-231 cells and MDA-MB-231 cells expressing GPI-mS1ED, mS1^Δ88-252, mS1^Δ122-252 and mS1^TDM were transfected with lipid-vehicle alone or 200 nM hS1-siRNA and seeded on wells coated with either 10 μg/ml of VN or FN. Cells were incubated at 37° C. for 2 h, fixed and stained with rhodamine-conjugated phalloidin. Bar, 50 μm. (FIG. 8G-H) Lipid-vehicle (gray-filled) or hS1-siRNA (black-filled) transfected cells were also plated on polycarbonate filters coated with either 10 μg/ml of VN (FIG. 8G) or FN (FIG. 8H) in a modified Boyden chamber. After 16 h, cells that migrated through the filter in response to 10% FBS in the lower chamber were quantified by colorimetric staining.
MDA-MB-231 human mammary carcinoma cells, plated in the absence of serum, adhere to and spread (˜15-20 min after plating) on wells coated with either 10 μg/mL VN or FN (FIG. 1). […] LM609 has no effect on spreading in response to FN; instead, the cells rely on […] to respond to FN as spreading is blocked by either 25 μg/mL mAb 13 (FIG. 1; Mould et al., 1996) or mAb 16 (unpublished data; Akiyama et al., 1989). […]

[2] = test system: Human aortic endothelial cells (HAEC); assay: HAEC spreading on VN; type: cell-based; settings: 1-10 uM GST-mS1ED
Method: FIG. 13—Human aortic endothelial cells rely on αvβ3 and αvβ5 integrins for spreading on VN. Human aortic endothelial cells (HAECs) were suspended and replated on 10 μg/ml VN in the presence of integrin inhibitory antibodies mAb 13 (specific for β1-containing integrins; this will inhibit the αvβ1 integrin), LM609 (specific for the αvβ3 integrin) and P1F6 (specific for the αvβ5 integrin), or combinations of these antibodies. After 2 hr, the cells were fixed, stained with Alexa488-conjugated phalloidin to aid in visualization, and observed by fluorescence microscopy to document integrin-dependent spreading. Inhibition of spreading requires simultaneous inhibition of both the αvβ3 and αvβ5 integrins.
FIG. 15—αvβ3 and αvβ5 integrin-mediated spreading of human aortic endothelial cells on VN is disrupted by recombinant syndecan-1 ectodomain fusion protein. HAECs are plated on VN in the presence of no competitor, 1-10 uM GST-mS1ED (recombinant mouse syndecan-1 ectodomain expressed as a fusion protein with GST) or GST alone.
FIG. 16—Inhibition of HAEC spreading on VN by silencing of Sdc-1. HAECs were transfected with a range of concentrations of siRNA specific for human Sdc1 (hS1), which achieves 80-88% silencing at 100-200 nM, as shown by flow cytometry using human Sdc-1 mAb B-B4. The cells treated with 200 nM siRNA were also plated on VN for 2 hr and display a 60% reduction in cell spreading. […]

[3] = test system: MDA-MB-231 human mammary carcinoma cells; settings: no integrin ligand; Beauvais and Rapraeger, 2003; cited from earlier work

Row | Molecule | cell spreading on FN [1] | cell spreading on VN [1] | αvβ3 and αvβ5 integrin-mediated spreading on VN [2] | collaboration between Sdc-1 and αvβ3 integrins in cells adherent to Sdc-1-specific antibody [3]
1 | GST-mS1ED: recombinant mouse syndecan-1 ectodomain expressed as a fusion protein with GST (protein, left off: a dimerising Fc or GST, recombinant mouse syndecan-1 ectodomain expressed as a fusion protein with GST) QIVAVNVPPEDQDGSGDDSDNFSGSGTGALPDTLSRQTPSTWKDVWLLTATPTAPEPTSSNTETAFTSVLPAGEKPEEGEPVLHVEAEPGFTARDKEKEVTTRPRETVQLPITQRASTVRVTTAQAAVTSHPHGGMQPGLHETSAPTAPGQPDHQPPRVEGGGTSVIKEVVEDGTANQLPAGEGSGEQDFTFETSGENTAVAAVEPGLRNQPPVDEGATGASQSLLDRKEVLG | no effect | blocks cell spreading | disrupted | disrupted
2 | GST-mS4ED: recombinant GST fusion of mouse syndecan-4 ectodomain, specificity control (protein, left off: a dimerising Fc or GST, recombinant GST fusion of mouse syndecan-4 ectodomain, specificity control) ESIRETEVIDPQDLLEGRYFSGALPDDEDAGGSDDFELSGSGDLDDTEEPRPFPEVIEPLVPLDNHIPENAQPGIRVPSEPKELEENEVIPKRAPSDVGDDMSNKVSMSSTAQGSNIFERTE | no effect | no effect |  | 
